Results as given in patent publication US20060172958A1, “Phospholipid scramblase 3” (priority 2003, published 2006).

Legend:
[1] = target: phospholipid scramblase 3 alpha (PLS3α) (human) (UniProt Q9NRY6); experiment: cell-based or functional assay
[2] = target: phospholipid scramblase 3 (PLS3), human, isoform not stated (human) (UniProt Q9NRY6); experiment: co-immunoprecipitation with PLS3 antibody, estimated against a PKC-δ blot (not shown)
phospholipid scramblase 3 (PLS3), human, isoform not stated (human), sequence (Q9NRY6 whole entry, canonical isoform): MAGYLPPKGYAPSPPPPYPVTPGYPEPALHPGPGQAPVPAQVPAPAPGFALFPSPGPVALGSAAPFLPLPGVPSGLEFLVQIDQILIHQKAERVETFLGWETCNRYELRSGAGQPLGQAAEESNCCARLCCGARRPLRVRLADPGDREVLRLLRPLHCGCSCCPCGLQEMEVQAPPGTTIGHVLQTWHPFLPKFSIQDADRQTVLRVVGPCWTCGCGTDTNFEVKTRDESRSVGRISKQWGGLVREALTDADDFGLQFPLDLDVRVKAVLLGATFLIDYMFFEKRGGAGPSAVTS

phospholipid scramblase 3 alpha (PLS3α) (human), sequence (Q9NRY6 other isoform, or with tags, fused parts or gaps limits assumed): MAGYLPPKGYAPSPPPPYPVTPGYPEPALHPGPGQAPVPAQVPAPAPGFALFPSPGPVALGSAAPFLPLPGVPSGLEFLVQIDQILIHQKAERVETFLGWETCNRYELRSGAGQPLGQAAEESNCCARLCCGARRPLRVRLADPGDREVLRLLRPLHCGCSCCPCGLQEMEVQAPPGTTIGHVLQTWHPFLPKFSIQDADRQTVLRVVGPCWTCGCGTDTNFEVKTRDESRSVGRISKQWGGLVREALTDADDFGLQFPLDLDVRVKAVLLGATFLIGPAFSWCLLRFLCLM

Row | Substance | percentage of cardiolipin at the outer membrane (shoulder of the NAO curve) [1] | proportion of sub-G1 cells, or the apoptotic population (propidium iodide) [1] | percent of total cellular PKC-δ co-immunoprecipitated with PLS3 [2]
1 | Bcl-B (untagged, from pcDNA-Bcl-B or pBcl-B-IRES-EGFP) (from UniProt Q9HD36 1-204) | 50% | 15.4% | 
2 | PKC-δ (cellular, HEK293 cells) (from UniProt Q05655 1-676) (enzyme) |  |  | 5 to 10%
